{
  "source": "paper PMC2664468",
  "key": {"[1]": {"molecular_target": "His-tagged ECTV vCD30 protein (vCD30His) (Ectromelia virus (ECTV))", "assay": "non-reducing SDS-PAGE; purified vCD30His from baculovirus; data not shown"}, "[2]": {"molecular_target": "endogenous vCD30 protein secreted during ECTV infection (Ectromelia virus (ECTV Naval.Cam))", "assay": "non-reducing SDS-PAGE and Western blot"}},
  "data": [
    {"substance": "His-tagged ECTV vCD30 protein (vCD30His) (natural protein)", "values": [
      {"measurement": "stoichiometry N", "setting": "[1]", "result": 3}
    ]},
    {"substance": "endogenous vCD30 protein secreted during ECTV infection (natural protein)", "values": [
      {"measurement": "stoichiometry N", "setting": "[2]", "result": 3}
    ]}
  ]
}
